Experiment [1] deals with CBP Kix (UniProt Q92793). Particulars: cited from earlier work.
The target in experiment [2] is Kix. Particulars: ref Zor et al., 2002, cited from earlier work.
In experiment [3] the target is p53 TAD peptide 1-57 Hepta-(Ala) (human) (UniProt P04637). Kind of experiment: fluorescence polarisation.
Experiment [4] deals with p53 TAD peptide 10-57 Hepta-(Asp) (human) (UniProt P04637). Kind of experiment: fluorescence polarisation.

We go through three substances from article PMC2685776 (Oncogene, 2009).

Several values for one entry are separate records, joined by “and”; a condition that tells them apart may be missing. Equal values may be shown once.

UniProt Q92793, sequence (Q92793 587-666): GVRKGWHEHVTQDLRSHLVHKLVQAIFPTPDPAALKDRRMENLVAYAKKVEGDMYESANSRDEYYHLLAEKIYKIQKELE
CREB, sequence (P16220 whole entry): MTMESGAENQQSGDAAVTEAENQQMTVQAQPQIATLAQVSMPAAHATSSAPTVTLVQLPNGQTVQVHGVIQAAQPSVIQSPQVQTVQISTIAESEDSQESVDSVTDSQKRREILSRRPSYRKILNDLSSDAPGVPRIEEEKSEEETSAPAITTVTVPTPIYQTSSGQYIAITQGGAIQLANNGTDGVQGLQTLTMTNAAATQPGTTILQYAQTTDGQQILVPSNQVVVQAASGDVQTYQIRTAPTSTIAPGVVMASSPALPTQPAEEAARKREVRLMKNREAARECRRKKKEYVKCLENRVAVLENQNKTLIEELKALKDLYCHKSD

Take CREB (from UniProt P16220): in experiment [1], the Kd is 700 nM. “CREB: transcription factor CREB, phosphorylated on Ser133, binding Kix (literature)”: in experiment [2] (read-out: KD, Kix, CREB phosphorylated at Ser133), the Kd is 700 nM. In addition, in experiment [2], the “fold tighter Kix binding upon phosphorylation of Ser133” value was 150 fold and ~ 150 fold. As for “p300 Taz1 domain (from UniProt Q09472 1-2414) (domain or fragment)”, the Kd in experiment [3] is 560 nM; in experiment [4] it was 38 nM.
